Data from US20210253725A1 (BIONTECH, published 2021).

T1: CD134 expressed on the cell surface of HT1080_OX40 cells (human, UniProt P43489 29-277)
T1 construct: whole, on cells; species not restated for the HT1080 transfectant
T1 sequence (looked up): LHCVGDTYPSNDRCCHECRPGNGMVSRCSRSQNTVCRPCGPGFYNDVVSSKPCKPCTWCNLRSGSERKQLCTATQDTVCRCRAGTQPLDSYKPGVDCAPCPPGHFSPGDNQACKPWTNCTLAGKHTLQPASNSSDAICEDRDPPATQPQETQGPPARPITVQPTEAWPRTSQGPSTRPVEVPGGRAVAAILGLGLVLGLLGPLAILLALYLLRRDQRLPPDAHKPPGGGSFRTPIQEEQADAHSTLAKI

T2: CD134 protein (His-tagged, Sino Biological Inc. 10481-H08H) (human, UniProt P43489 29-216)
T2 construct: bought protein coated on ELISA plates; also called OX40; TNFRSF4; not shown: His tag
T2 sequence (looked up): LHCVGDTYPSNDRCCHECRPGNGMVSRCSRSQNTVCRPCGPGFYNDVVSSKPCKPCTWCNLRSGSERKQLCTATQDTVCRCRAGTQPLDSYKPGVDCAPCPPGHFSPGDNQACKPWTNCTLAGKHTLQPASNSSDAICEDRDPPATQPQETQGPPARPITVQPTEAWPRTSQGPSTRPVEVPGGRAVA


What was measured:
[1] = target: T1, CD134 expressed on the cell surface of …; test: HT1080_OX40 cells, imaging; also: test concentration or dose not given here
[2] = target: T1, CD134 expressed on the cell surface of …; test: cell-based or functional assay
[3] = target: T2, CD134 protein (His-tagged, Sino …); test: ELISA, coated His-tagged CD134; also: test concentration or dose not given here
[4] = target: T1, CD134 expressed on the cell surface of …; test: cell-based or functional assay; remark: listed apart in the source
For Functional assay Cross-linked by F(ab′)2 fragment IL-8 in this document: test concentration or dose not given here.
For Functional assay IL-8 in this document: test concentration or dose not given here.

Binder | Cellular binding assay [RFU] [1] [RFU] | EC 50 (IL-8 release, cross-linked) [2] [µg/mL] | ELISA [abs. corr.] [3] [abs. corr.] | Functional assay Cross-linked by F(ab′)2 fragment IL-8 [4] [abs. corr.] | Functional assay IL-8 [4] [abs. corr.]
P018.S.12.A.B05 (antibody, V domains shown, V regions on human Ig constant parts; also called AB134_59) VH: QQQLVESGGGLVKPGASLTLTCKASGFFFSGSYYMCWVRQAPGKGLEWIACIYTGSDDDTNYASWAKGRFTISKTSSTTVTLQMTSLTAADTATYFCARRNYDTDWGGDLWGPGTLVTVSS VL: AVVLTQTPASVEAAVGGTVTIKCQASQSIGSSLAWYQQKPGQRPKLLIYYASNLASGVSSRFKGSGSGTQFTLTISDLESADAATYYCQCTYTSSDYLDAFGGGTEVVVK | 536 | 0.102 | 2.1 | 2.15 | 0.96
P018.S.11.A.G03 (antibody, V domains shown, V regions on human Ig constant parts; also called AB134_43) VH: QSLEESGGRLVTPGTPLTLTCTASGFSLTNYAMNWVRQAPGKGLEWIGFINYDGNTYYANWAKGRFTISRTSTTVDLKITSPTTEDTATYFCARGGDGYTHIPDTFDPWGPGTLVTVSS VL: AFEMTQTPSSVSVAVGGTVTIKCQASQSIYSYLSWYQQKPGQPPKLLIYYASTLASGVPSRFVGSGSGTQFTLTISGVESADAATYYCQQGYSYSNIDNVFGGGTEMVVK | 450 | 0.894 | 2.11 | 2.1 | 1.57
P018.S.12.A.D06 (antibody, V domains shown, V regions on human Ig constant parts; also called AB134_71) VH: QSVEESGGRLVTPGTPLTLTCTVSGFSLSSYDMSWVRQAPGKGLEWIGIIYVSGTTDYASWAKGRFTISKTSTTVDLKMTSLTTEDTATYFCARDIYVDEIGCFDLWGQGTLVTVSS VL: DILMTQTPASVEVAVGGTVTIKCQASQNIRTYLAWYQQKPGQPPKLLIYRASTLESGVPSRFKGSGSGIEFSLTISDLESADAATYYCQNYDGGSSTGFGGGTEVVVK | 180 | 2.77 | 0.865 | 2.17 | 0.832
P018.S.11.A.C03 (antibody, V domains shown, V regions on human Ig constant parts; also called AB134_28) VH: QSVEESGGRLVTPGTPLTLTCKVSGFSLSTYDMIWVRQAPAKGLEYIGIIGGSGFTYYANWAKGRFTISKTSTTVDLKITSPTTEDTATYFCARNNYDMWGPGTLVTVSS VL: DVVMTQTPASVSEPVGGTVTIKCQASQSISNELAWHQQKPGQRPNLLIYGASTLESGVPSRFKGSRSGTEYTLTISDLESDDAATYYCQCTYYGSSYVGGAFGGGTEVVVK | 507 | 0.217 | 1.53 | 2.19 | 0.586
P018.S.11.A.A06 (antibody, V domains shown, V regions on human Ig constant parts; also called AB134_23) VH: QEQLVESGGGLVQPEGSLTLTCKASGFSFSSANCMHWVRQAPEKGLQWIGCVCIGDGTTYYASWVNGRFSISATSSTTVTIQMTSLTAADTATYFCARDLGLWGPGTLVTVSS VL: AIVMTQTPSSKSVPVGDTVTINCQASESVDKYTQCSWYQQKPGQPPKLLIYYASTLASGVPSRFKGSGSGTQFTLTISDVVSDDAATYYCSGYKGGSADMIAFGGGTELVVT | 537 | 2.09 | 1.84 | 2.16 | 0.732
P018.S.12.A.F03 (antibody, V domains shown, V regions on human Ig constant parts; also called AB134_79) VH: QSLEESGGRLVAPGTPLTLTCTVSGIDLSRYAMGWVRQAPGKGLEYIGIIDDNDITYFATWAKGRFTISKTSTTLGLKITSPTTEDTATYFCARTADYADYSFGLWGPGTLVTVSS VL: DVVMTQTPTSVSEPVGGTVTIKCQASENIGNYLAWYQQRPGQRPKLLIYAASNLASGVPSRFKGSGSGTEYALTISDLESDDAATYYCQCTYDDSEYFVFGGGTEVVVK | 485 | 1.63 | 2.45 | 2.15 | 0.527
P018.S.12.A.D05 (antibody, V domains shown, V regions on human Ig constant parts; also called AB134_70) VH: QEQLKESGGGVVTPGGTLTLTCTASAFSLNHYNIQWVRQAPGKGLEWIGWILTDGTEYYANWAKGRFTISKTSTTVDLKIASPTTEDTATYFCAREGDWGVDSLWGPGTLVTVSS VL: ALVMTQTPSPVSAAVGGTVTISCQSSQSVDNNDFLSWYQQKPGQPPKLLIYLASKLASGVPSRFSGSGSGTQFTLTISGVQSDDAATYYCKGLYFDSGWYAAFGGGTEVVVE | 451 | 2.4 | 2.13 | 2.15 | -0.007
P018.S.12.A.F05 (antibody, V domains shown, V regions on human Ig constant parts; also called AB134_81) VH: QSLEESGGGLVQPGGSLKLSCKASGIDFSSYGVSWVRQAPGKGLEWIAYTYPDYGSTDYASWVNGRFTISLDNAQNTVFLQMTSLTAADTATYFCASSSNGWGGGFYFDLWGPGTLVTVSS VL: ALVMTQTPSPVSAAVGGTVTINCQASEDIYSNLAWFQQKPGQPPKLLIYGASTLASGVPSRFSGSGSGTEFTLTINDLKSDDAATYYCLGVYTYITTDPNAFGGGTEVVVK | 511 | 0.733 | 2.12 | 2.17 | 0.341
P018.S.11.A.C04 (antibody, V domains shown, V regions on human Ig constant parts; also called AB134_29) VH: QSVEESGGRLVTPGTPLTLTCTVSGFSLGSYPMIWVRQAPGKGLEWIGYIDPGRGTTLYASWARGLFTISKTSTTVDLAMTSPTAADTATYFCARSYPGDGAGDLWGQGTLVTVSS VL: DVVMTQTPASVSEPVGGTVTIKCQASESISNYFSWYQQKPGQPPKLLIYGASTLESGVSSRFKGSGSGTDFTLTISDLESADAATYYCQCTYYGSGDVGGAFGGGTEVVVK | 406 | 0.785 | 1.96 | 2.19 | 0.253
P018.S.04.A.F06 (antibody, V domains shown, V regions on human Ig constant parts; also called AB134_13) VH: QSVEESGGRLVTPGTPLTLTCTVSGIDLSSSAMSWVRQAPGKGLEWIGIIGYNDFTYYANWAKGRFTISKTSTTVDLKMTSPTTEDTATYFCARGGSSSYSDYVFDPWGPGTLVTVSS VL: AFEMTQTPSSVSEPVGGTVTIKCQASQSIYSNLAWYQQKPGQRPKLLIYDASDLASGVPSRFSGSGYGTEFTLTISDLESADAATYYCQSYYGISSYGVAFGGGTEVVVK | 402 | 0.44 | 2.36 | 2.21 | 2.07
